Article PMC13411919

Target: trimeric BG505.SOSIP.664 T332N-avi-biotinylated protein (HIV-1 (BG505, clade A))
Test: native gel or EMSA; BN-PAGE (NuPAGE 4-12% BisTris) of the SEC trimer peak, before and after biotinylation

trimeric BG505.SOSIP.664 T332N-avi-biotinylated protein (domain or fragment)
stoichiometry N: 3
